Laboratory results published in publication PMC3423370.

What was measured:
[1] = target: Biomphalaria glabrata acetylcholine-binding protein (BgAChBP), native rosette protein from hemolymph (Biomphalaria glabrata); assay: cryo-EM structure; native rosette protein at 1.2 mg/ml vitrified on C-flat holey carbon grids; 9770 single particles, icosahedral symmetry, resolution ~6 Å (FSC0.5 5.9 Å)
[2] = target: Biomphalaria glabrata acetylcholine-binding protein (BgAChBP), native rosette protein from hemolymph (Biomphalaria glabrata); assay: non-reducing SDS-PAGE; chromatographically enriched native BgAChBP under non-reducing against reducing conditions; disulfide-linked subunit dimers
[3] = target: Recombinant BgAChBP2 (Biomphalaria glabrata); assay: negative-stain electron microscopy; refolded recombinant protein, 20 mM Tris-HCl pH 8.0 with 50 mM imidazole; 2% uranyl acetate; for BgAChBP1 a 3D reconstruction (~20 Å) from ~3000 negatively stained particles

Biomphalaria glabrata acetylcholine-binding protein (BgAChBP), native rosette protein from hemolymph (complex)
stoichiometry N [1]: 60 | stoichiometry N [2]: 2

Recombinant BgAChBP2 (natural protein)
stoichiometry N [3]: 5
